Reference: publication PMC3158092
Read-outs that look alike come from different tables or passages of the source.

How the values were obtained:
YPet [1] = experiment: FRET or BRET
YPet [2] = experiment: FRET or BRET; remark: listed apart in the source

| FRET efficiency, oxidized (0 mmol/L DTT) (YPet [1]) | FRET efficiency, reduced (10 mmol/L DTT) (YPet [1]) | FRET efficiency, oxidized (0 mmol/L DTT) (YPet [2]) | FRET efficiency, reduced (10 mmol/L DTT) (YPet [2]) | Substance |
| --- | --- | --- | --- | --- |
| 0.371 | 0.375 | 0.27 | 0.265 | CyPet |
|  |  | 0.288 | 0.376 | ECFP |
